In general, Kd refers to the equilibrium constant for the complex coming apart.

The record followed here is publication PMC5694763.

In the data set the target is dCas9 (SpCas9 D10A/H840A) D10A;H840A (Streptococcus pyogenes) (UniProt Q99ZW2). As to the kind of experiment: SPR. As to conditions: SPR: PBS, 0.005% Tween-20, 25 C, BLI: PBS, 0.005% Tween-20, 1 mM MgCl2, 50 ug/ml heparin, SwitchSENSE: 20 mM Tris pH 7.4, 100 mM KCl, 5 mM MgCl2, 0.01% ….

Turning to “AGCACTGCACGCCGUAGGUCGUUUTAGAGCTATGCTGTTTTG [GFP cr1 crHyb with tracrRNA]”, where the note is “DNA with 7 RNA residues (1,15,16,19,22,23,24)”, the Kd was less than 1 nM.
For tracrRNA (88 nt), the Kd (dCas9 immobilised, 1.2-100 nM titration) was found to be 6.2 nM and the Kd (dCas9 immobilised, kinetic 1:1 fit) was determined as 0.308 nM.
